Test results taken from patent US20030044400A1, “Composition and method for treating cells” (priority 2001, published 2003).
Values joined by “and” are separate entries in the source; they are usually repeats but may differ in a detail not shown here. Identical values can stand only once.

Experiment: Rabbit Study to Determine the Safety of Fetuin by Intravenous Administration
Assay type: in vivo
Design: Temp Increase / Wt. Gain Mar. 6, 2000 / Wt. Gain April 6, 2000 / Wt. Gain April 19, 2000 / Mean of Wt.Gain / Globulin / Alanine Transferase / Aspartate Transferase / Mean of ALT / Mean of AST: unit not given here
Conditions: rabbits; for Temp Increase: monitored 3 hours post injection; for Blood Glucose Level / Mean of blood Glucose level: non-fasting; for Wt. Gain: over 7 week period; for Albumin / Globulin: serum
Method: Rabbits weighing 1.75 to 2.5 kg are used in the study, 2 rabbits/group. The control group receives 1 ml of saline. […] All dilutions are made with sterile pyrogen free saline (0.9%). The study is designed to limit to an acceptable level the risk of a febrile reaction in patients. The animals are given their respective doses of Fetuin at two-day interval for a total of three doses if no reaction occurs. Blood samples are collected for a baseline prior to treatment and then 24-36 hours after the third treatment. At the end of the treatment period, blood is drawn to perform hematology to compare with the baseline levels. The body temperature is recorded for three hours post injection to determine if a febrile reaction is produced. The body temperature is monitored prior to injection (30 min) and then at 30 min interval for three hours. Prior to sacrifice, blood is drawn from each animal to determine the serum level of Fetuin. Organs are examined in all animals. The target organs: spleen, lymph nodes, thymus are examined for evidence of increased size. All tissues excised are preserved in 10% formalin for subsequent histopathology if necessary. Observations made at each dose level are tabulated to see if there is any correlation of symptoms and/or mortality and dose level of the test material. Body weights and necropsy results are recorded. Rabbit body temperature increases for each dose level is reported and conclusions made from the study.

Q: For “Fetuin: Fetal bovine fetuin purified from fetal bovine serum by modified Spiro method; 60 Kd glycoprotein, homologue of alpha 2-HS glycoprotein”, which “signs of distress during the test” value is on record?
A: Its value is “None of the animals displayed any signs of distress”.

Q: And the “toxicity, conclusion of rabbit study” value (iv)?
A: Its value is “no toxicity”.

Q: What about the “Alanine Transferase” value (iv, 65.7 mg/kg) of the same substance?
A: Its value is 54 and 29.

Q: And the “Albumin/Globulin Ratio” value (iv, 65.7 mg/kg)?
A: Its value is 13.8 and 11.2.

Q: And the “Aspartate Transferase” value (iv, 65.7 mg/kg)?
A: Its value is 28 and 32.

Q: And the “Blood Urea Nitrogen” value (iv, 65.7 mg/kg)?
A: Its value is 21 mg/dL and 24 mg/dL.

Q: And the “Cholesterol” value (iv, 65.7 mg/kg)?
A: Its value is 69 mg/dL and 71 mg/dL.

Q: What about the “Cholesterol Mean” value (iv, 65.7 mg/kg) of the same substance?
A: Its value is 70 mg/dL.

Q: And the Hematocrit (iv, 65.7 mg/kg)?
A: The Hematocrit was 37.0% and 40.2%.

Q: What about the “Hematocrit % Mean” value (iv, 65.7 mg/kg) of the same substance?
A: Its value is 38.6%.

Q: And the Hemoglobin (iv, 65.7 mg/kg)?
A: Its Hemoglobin is 12.6 g/dL and 13.4 g/dL.

Q: And the “Hemoglobin Mean” value (iv, 65.7 mg/kg)?
A: The value was 13.0 g/dL.

Q: And the “Mean of ALT” value (iv, 65.7 mg/kg)?
A: The value was 41.5.

Q: And the “Mean of AST” value (iv, 65.7 mg/kg)?
A: Its value is 30.

Q: And the “Mean of BUN” value (iv, 65.7 mg/kg)?
A: The value was 22.5 mg/dL.

Q: And the “Mean of WBC” value (iv, 65.7 mg/kg)?
A: The value was 8.5 K/ul.

Q: What about the “Mean of Wt.Gain” value (iv, 65.7 mg/kg) of the same substance?
A: Its value is 1.14.

Q: And the “Spleen Wt.” value (iv, 65.7 mg/kg)?
A: Its value is 1.72 g and 1.54 g.

Q: What about the “Spleen Wt. Mean” value (iv, 65.7 mg/kg) of the same substance?
A: Its value is 1.63 g.

Q: What about the “Thymus Wt.” value (iv, 65.7 mg/kg) of the same substance?
A: The value was 5.21 g and 6.56 g.

Q: What about the “Thymus Wt. Mean” value (iv, 65.7 mg/kg) of the same substance?
A: The value was 5.85 g.

Q: What about the “Ttl Serum Protn” value (iv, 65.7 mg/kg) of the same substance?
A: Its value is 5.9 g/dL and 6.1 g/dL.

Q: What about the “WBC, K/ul” value (iv, 65.7 mg/kg) of the same substance?
A: Its value is 6.9 K/ul and 10.1 K/ul.

Q: And the “Wt. Gain April 6, 2000” value (iv, 65.7 mg/kg)?
A: Its value is 3.15 and 3.28.

Q: And the “Wt. Gain April 19, 2000” value (iv, 65.7 mg/kg)?
A: The value was 3.65 and 3.72.

Q: And the “Wt. Gain Mar. 6, 2000” value (iv, 65.7 mg/kg)?
A: Its value is 2.48 and 2.61.

Q: What about the “Temp Increase” value (iv, 65.7 mg/kg, Apr. 6, 2000) of the same substance?
A: Its value is 0.

Q: And the “Temp Increase” value (iv, 65.7 mg/kg, Mar. 6, 2000)?
A: The value was 0.

Q: What about the “Blood Glucose Level” value (iv, 65.7 mg/kg) of the same substance?
A: The value was 94 mg/dL and 88 mg/dL.

Q: And the “Mean of blood Glucose level” value (iv, 65.7 mg/kg)?
A: Its value is 91 mg/dL.

Q: What about the “Wt. Gain” value (iv, 65.7 mg/kg) of the same substance?
A: The value was 1.17 kg and 1.11 kg.

Q: What about the Albumin (iv, 65.7 mg/kg) of the same substance?
A: The Albumin was 5.5 and 5.6.

Q: What about the Globulin (iv, 65.7 mg/kg) of the same substance?
A: Its Globulin is 0.4 and 0.5.

Q: And the “Alanine Transferase” value (iv, 126 mg/kg)?
A: Its value is 42 and 32.

Q: And the “Albumin/Globulin Ratio” value (iv, 126 mg/kg)?
A: The value was 8.8.

Q: And the “Aspartate Transferase” value (iv, 126 mg/kg)?
A: Its value is 37 and 66.

Q: And the “Blood Urea Nitrogen” value (iv, 126 mg/kg)?
A: Its value is 20 mg/dL and 17 mg/dL.

Q: What about the “Cholesterol” value (iv, 126 mg/kg) of the same substance?
A: Its value is 66 mg/dL and 49 mg/dL.

Q: What about the “Cholesterol Mean” value (iv, 126 mg/kg) of the same substance?
A: Its value is 57.5 mg/dL.

Q: And the Hematocrit (iv, 126 mg/kg)?
A: Its Hematocrit is 38.2% and 38.6%.

Q: And the “Hematocrit % Mean” value (iv, 126 mg/kg)?
A: Its value is 38.4%.

Q: And the Hemoglobin (iv, 126 mg/kg)?
A: Its Hemoglobin is 12.4 g/dL and 12.9 g/dL.

Q: What about the “Hemoglobin Mean” value (iv, 126 mg/kg) of the same substance?
A: The value was 12.6 g/dL.

Q: And the “Mean of ALT” value (iv, 126 mg/kg)?
A: Its value is 37.

Q: What about the “Mean of AST” value (iv, 126 mg/kg) of the same substance?
A: The value was 51.5.

Q: And the “Mean of BUN” value (iv, 126 mg/kg)?
A: Its value is 18.5 mg/dL.

Q: And the “Mean of WBC” value (iv, 126 mg/kg)?
A: Its value is 8.1 K/ul.

Q: And the “Mean of Wt.Gain” value (iv, 126 mg/kg)?
A: Its value is 0.76.

Q: And the “Spleen Wt.” value (iv, 126 mg/kg)?
A: The value was 1.37 g and 1.9 g.

Q: And the “Spleen Wt. Mean” value (iv, 126 mg/kg)?
A: The value was 1.43 g.

Q: And the “Thymus Wt.” value (iv, 126 mg/kg)?
A: The value was 4.90 g and 5.21 g.

Q: What about the “Thymus Wt. Mean” value (iv, 126 mg/kg) of the same substance?
A: Its value is 5.05 g.

Q: And the “Ttl Serum Protn” value (iv, 126 mg/kg)?
A: The value was 5.9 g/dL.

Q: What about the “WBC, K/ul” value (iv, 126 mg/kg) of the same substance?
A: The value was 6.7 K/ul and 9.5 K/ul.

Q: What about the “Wt. Gain April 6, 2000” value (iv, 126 mg/kg) of the same substance?
A: Its value is 3.31 and 3.10.

Q: What about the “Wt. Gain April 19, 2000” value (iv, 126 mg/kg) of the same substance?
A: The value was 3.56 and 3.26.

Q: And the “Wt. Gain Mar. 6, 2000” value (iv, 126 mg/kg)?
A: Its value is 2.60 and 2.70.

Q: What about the “Temp Increase” value (iv, 126 mg/kg, Apr. 6, 2000) of the same substance?
A: The value was 0.

Q: And the “Temp Increase” value (iv, 126 mg/kg, Mar. 6, 2000)?
A: The value was 0.

Q: What about the “Blood Glucose Level” value (iv, 126 mg/kg) of the same substance?
A: Its value is 221 mg/dL and 123 mg/dL.

Q: And the “Mean of blood Glucose level” value (iv, 126 mg/kg)?
A: The value was 172 mg/dL.

Q: What about the “Wt. Gain” value (iv, 126 mg/kg) of the same substance?
A: The value was 0.96 kg and 0.56 kg.

Q: And the Albumin (iv, 126 mg/kg)?
A: The Albumin was 5.3.

Q: And the Globulin (iv, 126 mg/kg)?
A: Its Globulin is 0.6.

Q: What about the “Alanine Transferase” value (iv, 185 mg/kg) of the same substance?
A: Its value is 49 and 36.

Q: What about the “Albumin/Globulin Ratio” value (iv, 185 mg/kg) of the same substance?
A: The value was 5.8 and 10.2.

Q: What about the “Aspartate Transferase” value (iv, 185 mg/kg) of the same substance?
A: Its value is 26 and 23.

Q: And the “Blood Urea Nitrogen” value (iv, 185 mg/kg)?
A: The value was 19 mg/dL and 22 mg/dL.

Q: And the “Cholesterol” value (iv, 185 mg/kg)?
A: The value was 35 mg/dL and 56 mg/dL.

Q: And the “Cholesterol Mean” value (iv, 185 mg/kg)?
A: Its value is 45.5 mg/dL.

Q: And the Hematocrit (iv, 185 mg/kg)?
A: The Hematocrit was 35.2% and 37.3%.

Q: What about the “Hematocrit % Mean” value (iv, 185 mg/kg) of the same substance?
A: Its value is 36.3%.

Q: And the Hemoglobin (iv, 185 mg/kg)?
A: Its Hemoglobin is 11.4 g/dL and 12.3 g/dL.

Q: What about the “Hemoglobin Mean” value (iv, 185 mg/kg) of the same substance?
A: Its value is 11.8 g/dL.

Q: And the “Mean of ALT” value (iv, 185 mg/kg)?
A: The value was 42.5.

Q: And the “Mean of AST” value (iv, 185 mg/kg)?
A: Its value is 24.5.

Q: What about the “Mean of BUN” value (iv, 185 mg/kg) of the same substance?
A: Its value is 20.5 mg/dL.

Q: What about the “Mean of WBC” value (iv, 185 mg/kg) of the same substance?
A: The value was 8.75 K/ul.

Q: What about the “Mean of Wt.Gain” value (iv, 185 mg/kg) of the same substance?
A: The value was 1.02.

Q: What about the “Spleen Wt.” value (iv, 185 mg/kg) of the same substance?
A: The value was 1.71 g and 1.64 g.

Q: What about the “Spleen Wt. Mean” value (iv, 185 mg/kg) of the same substance?
A: The value was 1.67 g.

Q: What about the “Thymus Wt.” value (iv, 185 mg/kg) of the same substance?
A: Its value is 5.26 g and 5.60 g.

Q: And the “Thymus Wt. Mean” value (iv, 185 mg/kg)?
A: Its value is 5.43 g.

Q: What about the “Ttl Serum Protn” value (iv, 185 mg/kg) of the same substance?
A: The value was 6.1 g/dL and 5.6 g/dL.

Q: And the “WBC, K/ul” value (iv, 185 mg/kg)?
A: The value was 10.7 K/ul and 6.8 K/ul.

Q: What about the “Wt. Gain April 6, 2000” value (iv, 185 mg/kg) of the same substance?
A: Its value is 3.19 and 3.26.

Q: What about the “Wt. Gain April 19, 2000” value (iv, 185 mg/kg) of the same substance?
A: Its value is 3.69 and 3.77.

Q: What about the “Wt. Gain Mar. 6, 2000” value (iv, 185 mg/kg) of the same substance?
A: Its value is 2.80 and 2.61.

Q: What about the “Temp Increase” value (iv, 185 mg/kg, Apr. 6, 2000) of the same substance?
A: The value was 0.

Q: What about the “Temp Increase” value (iv, 185 mg/kg, Mar. 6, 2000) of the same substance?
A: Its value is 0.

Q: What about the “Blood Glucose Level” value (iv, 185 mg/kg) of the same substance?
A: Its value is 117 mg/dL and 89 mg/dL.

Q: And the “Mean of blood Glucose level” value (iv, 185 mg/kg)?
A: The value was 103 mg/dL.

Q: What about the “Wt. Gain” value (iv, 185 mg/kg) of the same substance?
A: The value was 0.89 kg and 1.16 kg.

Q: And the Albumin (iv, 185 mg/kg)?
A: The Albumin was 5.2 and 5.1.

Q: What about the Globulin (iv, 185 mg/kg) of the same substance?
A: Its Globulin is 0.9 and 0.5.

Q: What about the “rectal temperature change over 3 hr post injection” value (any dosages of Fetuin) of the same substance?
A: Its value is “did not cause body temperature increase”.
